The target in the assay is IL12 receptor on pre-activated mouse CD8+ T cells (mouse) (UniProt Q60837). As to the kind of experiment: cell-based or functional assay.
Sequence of IL12 receptor on pre-activated mouse CD8+ T cells (mouse) (Q60837 20-738, chain 1 of 2): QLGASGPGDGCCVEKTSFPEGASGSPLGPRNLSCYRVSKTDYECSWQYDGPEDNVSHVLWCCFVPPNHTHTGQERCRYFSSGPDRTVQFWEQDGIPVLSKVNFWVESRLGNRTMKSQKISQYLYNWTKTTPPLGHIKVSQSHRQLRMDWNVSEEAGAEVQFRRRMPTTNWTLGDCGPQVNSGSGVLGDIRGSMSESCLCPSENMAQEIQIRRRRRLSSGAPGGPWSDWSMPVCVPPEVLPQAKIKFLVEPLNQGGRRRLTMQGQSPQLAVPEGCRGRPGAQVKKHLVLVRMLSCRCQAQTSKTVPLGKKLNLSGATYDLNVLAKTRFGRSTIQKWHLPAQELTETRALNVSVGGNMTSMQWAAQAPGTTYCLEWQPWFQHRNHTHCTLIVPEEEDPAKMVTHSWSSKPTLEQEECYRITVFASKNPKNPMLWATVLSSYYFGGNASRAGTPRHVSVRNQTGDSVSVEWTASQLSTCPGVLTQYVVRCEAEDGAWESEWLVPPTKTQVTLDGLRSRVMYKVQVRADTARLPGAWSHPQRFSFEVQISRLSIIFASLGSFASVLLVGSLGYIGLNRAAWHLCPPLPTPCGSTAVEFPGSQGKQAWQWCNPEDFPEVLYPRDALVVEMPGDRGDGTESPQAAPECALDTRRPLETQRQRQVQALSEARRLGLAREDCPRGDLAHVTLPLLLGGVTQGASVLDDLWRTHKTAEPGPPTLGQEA
Sequence of IL12 receptor on pre-activated mouse CD8+ T cells (mouse) (chain, as listed by the source, chain 2 of 2): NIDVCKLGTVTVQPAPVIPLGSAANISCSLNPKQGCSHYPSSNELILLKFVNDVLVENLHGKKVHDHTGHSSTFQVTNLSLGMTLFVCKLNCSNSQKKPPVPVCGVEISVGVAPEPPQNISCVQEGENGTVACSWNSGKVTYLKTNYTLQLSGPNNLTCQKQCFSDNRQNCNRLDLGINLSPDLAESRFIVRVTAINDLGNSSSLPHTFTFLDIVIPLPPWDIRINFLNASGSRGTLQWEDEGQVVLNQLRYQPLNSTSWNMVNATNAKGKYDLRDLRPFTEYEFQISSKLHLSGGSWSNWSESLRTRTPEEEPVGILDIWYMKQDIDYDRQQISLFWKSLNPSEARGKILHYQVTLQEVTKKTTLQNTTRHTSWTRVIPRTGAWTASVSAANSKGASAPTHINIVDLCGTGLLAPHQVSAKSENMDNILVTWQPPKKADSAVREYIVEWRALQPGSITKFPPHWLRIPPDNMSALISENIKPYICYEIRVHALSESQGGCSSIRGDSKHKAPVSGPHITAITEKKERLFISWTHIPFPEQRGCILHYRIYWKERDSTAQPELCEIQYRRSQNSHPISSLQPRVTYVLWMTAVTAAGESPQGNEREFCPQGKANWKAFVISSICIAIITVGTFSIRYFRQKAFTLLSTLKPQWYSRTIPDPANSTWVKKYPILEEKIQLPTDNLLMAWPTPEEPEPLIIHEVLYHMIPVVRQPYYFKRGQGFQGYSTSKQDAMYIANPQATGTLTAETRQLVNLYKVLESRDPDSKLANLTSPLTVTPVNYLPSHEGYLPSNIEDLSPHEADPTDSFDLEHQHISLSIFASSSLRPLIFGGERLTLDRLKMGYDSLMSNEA

IL12Rβ1-(G3S)11-IL12 showed an EC50 of STAT4 phosphorylation in pre-activated mouse CD8+ T cells, fold against unmodified IL12 of 80 fold.

Source of the values: patent publication US20220281936A1.
